Measured values taken from article PMC7939381, “MMP activation–associated aminopeptidase N reveals a bivalent 14-3-3 binding motif” (The Journal of Biological Chemistry, 2021).

Key:
[1] = target: peptide 11, APN 36–73 pSer43 pThr63, as used in ITC and co-crystallisation (human) (UniProt P15144); test: ITC; 14-3-3η (500 µM; 250 µM for peptide 11) titrated into peptide (50 µM; 12.5 µM for peptide 11), 18 injections; 50 mM HEPES pH 7.4, 250 mM NaCl, 20 mM MgCl2; 25 °C
[2] = target: peptide 7, APN 36–73 pSer43, as used in ITC (human) (UniProt P15144); test: as above
Chain of peptide 7, APN 36–73 pSer43, as used in ITC (human) (P15144 36-73): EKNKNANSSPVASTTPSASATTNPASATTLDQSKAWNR

[3] = target: fluorescently labeled peptide 11, APN 36–73 pSer43 pThr63 (human) (UniProt P15144); test: fluorescence polarisation; direct binding: dilution series of 14-3-3 protein added to FITC-labeled peptide (30 nM stock, 5 µl in 15 µl); 10 mM HEPES pH 7.4, 150 mM NaCl, 2 mM DTT, 0.01% Tween 20; 60 min at room temperature, read at 25 °C; four-parameter fit
Chain of fluorescently labeled peptide 11, APN 36–73 pSer43 pThr63 (human) (P15144 36-73): as above

[4] = target: fluorescently labeled peptide 7, APN 36–73 pSer43 (human) (UniProt P15144); test: as above
Chain of fluorescently labeled peptide 7, APN 36–73 pSer43 (human) (P15144 36-73): as above

14-3-3β/α = 14-3-3β/α (UniProt P31946); test: direct fluorescence polarisation titration; conditions: reference: peptide 7 (pS43 only)
14-3-3η = 14-3-3η (UniProt Q04917); test: direct fluorescence polarisation titration; conditions: reference: peptide 7 (pS43 only)
14-3-3σ (stratifin, SFN) = 14-3-3σ (stratifin, SFN) (UniProt P31947); test: direct fluorescence polarisation titration; conditions: reference: peptide 7 (pS43 only)

Chain of peptide 11, APN 36–73 pSer43 pThr63, as used in ITC and co-crystallisation (human) (P15144 36-73): as above

14-3-3η, full length, N-terminally His6-tagged (from UniProt Q04917 1-246) (natural protein)
Kd [1]: 0.14 µM | stoichiometry N [1]: 0.58 | Kd [2]: 40.7 µM | stoichiometry N [2]: 1.13 | Kd [3]: 0.046 µM | Kd [4]: 24 µM

Aminopeptidase N (APN, CD13) 36-73 (from UniProt P15144) peptide 10 (pS43 pS61)
binding against the reference (14-3-3β/α; sites S61): stronger | binding against the reference (14-3-3η; sites S61): stronger | binding against the reference (14-3-3σ (stratifin, SFN); sites S61): stronger

Aminopeptidase N (APN, CD13) 36-73 (from UniProt P15144) peptide 11 (pS43 pT63)
binding against the reference (14-3-3β/α; sites T63): stronger | binding against the reference (14-3-3σ (stratifin, SFN); sites T63): stronger

Aminopeptidase N (APN, CD13) 36-73 (from UniProt P15144) peptide 12 (pS43 pT64)
binding against the reference (14-3-3β/α; sites T64): stronger | binding against the reference (14-3-3η; sites T64): stronger | binding against the reference (14-3-3σ (stratifin, SFN); sites T64): stronger
